Measured values from paper PMC4511006, “Peptide Inhibitor of Complement C1 (PIC1) Rapidly Inhibits Complement Activation after Intravascular Injection in Rats” (PLoS ONE, 2015).
Ends that are not written are not given here.

B1: C-terminally biotinylated PA peptide (peptide)
peptide: IALILEPICCQERAA-biotin
modifications: cysteine pairing not given here
notes: Polar Assortant (PA), 15 amino-acid derivative of a human astrovirus type 1 coat protein peptide; Detected by its biotin (streptavidin IR 680 or neutravidin-HRP); source: synthetic peptide, bought: New England Peptide (>=90% purity)
B2: Acetylated PA (AcPA) (peptide)
peptide: IALILEPICCQERAA
modifications: cysteine pairing not given here; also: acetylated, position not given here
notes: Polar Assortant (PA), 15 amino-acid derivative obtained by extensive modification of a 15-residue peptide of the human astrovirus type 1 coat protein; also called acetylated Polar Assortant peptide; PIC1; source: synthetic peptide, bought: New England Peptide (>=90% purity)

Assays:
Details in all cases: both partners purified
[1] = target: Wild-type recombinant ficolin H (ficolin-3) (human, UniProt O75636 24-299); assay: ELISA; ficolins adsorbed at 10 ug/mL, C1q at 25 nM, BSA at 30 ug/mL; biotinylated PA added at various concentrations in blocking buffer with 0.4 M NaCl, 1 h, room temperature; neutravidin-HRP
Sequence of Wild-type recombinant ficolin H (ficolin-3) (O75636 24-299): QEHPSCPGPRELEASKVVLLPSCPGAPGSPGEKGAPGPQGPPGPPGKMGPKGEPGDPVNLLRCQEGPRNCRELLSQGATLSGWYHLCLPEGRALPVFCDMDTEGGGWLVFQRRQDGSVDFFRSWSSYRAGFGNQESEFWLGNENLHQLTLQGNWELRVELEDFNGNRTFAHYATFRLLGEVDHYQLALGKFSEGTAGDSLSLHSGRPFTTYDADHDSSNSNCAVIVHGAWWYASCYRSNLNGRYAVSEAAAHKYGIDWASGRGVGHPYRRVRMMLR

[2] = target: Wild-type recombinant ficolin M (ficolin-1) (human, UniProt O00602 30-326); assay: as above
Sequence of Wild-type recombinant ficolin M (ficolin-1) (O00602 30-326): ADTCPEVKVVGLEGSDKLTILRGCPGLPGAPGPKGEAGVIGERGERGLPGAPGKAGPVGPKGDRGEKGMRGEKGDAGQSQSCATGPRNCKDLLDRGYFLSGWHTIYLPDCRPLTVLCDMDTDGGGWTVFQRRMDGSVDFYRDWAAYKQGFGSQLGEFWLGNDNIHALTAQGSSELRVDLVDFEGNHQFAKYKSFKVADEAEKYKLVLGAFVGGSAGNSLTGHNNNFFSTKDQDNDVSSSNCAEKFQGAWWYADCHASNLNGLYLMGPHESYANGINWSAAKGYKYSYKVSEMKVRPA

[3] = target: Wild-type recombinant ficolin L (ficolin-2) (human, UniProt Q15485 26-313); assay: as above
Sequence of Wild-type recombinant ficolin L (ficolin-2) (Q15485 26-313): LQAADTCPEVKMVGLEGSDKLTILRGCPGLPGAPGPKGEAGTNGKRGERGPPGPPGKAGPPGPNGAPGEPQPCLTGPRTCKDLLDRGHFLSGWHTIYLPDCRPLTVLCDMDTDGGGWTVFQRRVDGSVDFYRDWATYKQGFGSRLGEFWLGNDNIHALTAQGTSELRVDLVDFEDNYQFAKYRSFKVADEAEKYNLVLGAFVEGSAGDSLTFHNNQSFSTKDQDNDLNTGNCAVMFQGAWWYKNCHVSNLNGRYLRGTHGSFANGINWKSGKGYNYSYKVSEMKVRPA

C1q [4] = target: T1, C1q (UniProt P02745 23-245; P02746 28-253; P02747 29-245); assay: cross-linking; C1q and biotinylated PA at a ratio of 1:25 in 0.1 M Na2HPO4, 0.15 M NaCl, pH 8.0, room temperature 2.5 h, with or without 20 uM BS3; SDS-PAGE and blot with streptavidin and anti-C1q
T1 construct: also called purified C1q; intact C1q
T1 sequence (P02745 23-245, chain 1 of 3): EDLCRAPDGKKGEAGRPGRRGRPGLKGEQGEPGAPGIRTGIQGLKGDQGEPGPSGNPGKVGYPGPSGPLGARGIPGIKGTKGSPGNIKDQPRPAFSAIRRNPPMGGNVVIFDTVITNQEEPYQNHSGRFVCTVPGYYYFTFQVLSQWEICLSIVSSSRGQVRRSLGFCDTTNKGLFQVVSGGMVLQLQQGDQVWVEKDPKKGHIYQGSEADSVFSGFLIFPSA
T1 sequence (P02746 28-253, chain 2 of 3): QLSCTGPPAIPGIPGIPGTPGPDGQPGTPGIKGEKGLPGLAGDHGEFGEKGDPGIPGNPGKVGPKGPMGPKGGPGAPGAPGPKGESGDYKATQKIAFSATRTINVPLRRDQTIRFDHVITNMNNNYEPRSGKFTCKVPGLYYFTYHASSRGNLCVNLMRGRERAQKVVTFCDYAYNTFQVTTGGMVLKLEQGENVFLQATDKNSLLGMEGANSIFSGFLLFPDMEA
T1 sequence (P02747 29-245, chain 3 of 3): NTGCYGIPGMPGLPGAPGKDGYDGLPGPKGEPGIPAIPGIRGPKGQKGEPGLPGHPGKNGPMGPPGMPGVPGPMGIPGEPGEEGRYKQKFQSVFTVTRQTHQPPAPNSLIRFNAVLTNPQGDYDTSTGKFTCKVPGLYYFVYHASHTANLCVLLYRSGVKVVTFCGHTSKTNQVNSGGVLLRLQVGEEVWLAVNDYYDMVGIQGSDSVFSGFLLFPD

C1q [5] = target: T1, C1q; assay: ELISA; AcPA adsorbed to the plate at 2.5 uM; purified C1q (1 ug) added in 50 mM HEPES pH 7.0 with various concentrations of NaCl, 1 h, room temperature; detected with goat anti-C1q

Row | Binder | binding result [1] | binding result [2] | binding result [3] | binding result (C1q [4]) | binding result (C1q [5])
1 | B1 | binds | binds | binds | binds | 
2 | B2 |  |  |  |  | binds
